Source: patent US20230002480A1

Key:
Assay in all cases: cell-based or functional assay
[1] = biological target: HIV-1 Env of pseudovirus 1056_10_TA11_1826 (HIV-1)
[2] = biological target: HIV-1 Env of pseudovirus ZM247v1(Rev-) (HIV-1)
[3] = biological target: HIV-1 Env of pseudovirus 928-28 (HIV-1)
[4] = biological target: HIV-1 Env of pseudovirus T250-4 (HIV-1)
[5] = biological target: HIV-1 Env of pseudovirus Q769.d22 (HIV-1)
[6] = biological target: HIV-1 Env of pseudovirus 6535.3 (HIV-1)
[7] = biological target: HIV-1 Env of pseudovirus 0815.v3.c3 (HIV-1)
[8] = biological target: HIV-1 Env of pseudovirus 191084 B7-19 (HIV-1)
[9] = biological target: HIV-1 Env of pseudovirus X1193_c1 (HIV-1)
[10] = biological target: HIV-1 Env of pseudovirus 6240_08_TA5_4622 (HIV-1)
[11] = biological target: HIV-1 Env of pseudovirus 249M B10 (HIV-1)
[12] = biological target: HIV-1 Env of pseudovirus TRJO4551.58 (HIV-1)
[13] = biological target: HIV-1 Env of pseudovirus 3103.v3.c10 (HIV-1)
[14] = biological target: HIV-1 Env of pseudovirus T257-31 (HIV-1)
[15] = biological target: HIV-1 Env of pseudovirus R2184.c04 (HIV-1)
[16] = biological target: HIV-1 Env of pseudovirus 1394C9G1(Rev-) (HIV-1)
[17] = biological target: HIV-1 Env of pseudovirus PVO.4 (HIV-1)
[18] = biological target: HIV-1 Env of pseudovirus Q842.d12 (HIV-1)
[19] = biological target: HIV-1 Env of pseudovirus CAP45.2.00.G3 (HIV-1)
[20] = biological target: HIV-1 Env of pseudovirus 263-8 (HIV-1)
[21] = biological target: HIV-1 Env of pseudovirus 9004SS_A3_4 (HIV-1)
[22] = biological target: HIV-1 Env of pseudovirus BJOX015000.11.5 (HIV-1)
[23] = biological target: HIV-1 Env of pseudovirus 3301.v1.c24 (HIV-1)
[24] = biological target: HIV-1 Env of pseudovirus Q23.17 (HIV-1)
[25] = biological target: HIV-1 Env of pseudovirus 3016.v5.c45 (HIV-1)
[26] = biological target: HIV-1 Env of pseudovirus Q461.e2 (HIV-1)
[27] = biological target: HIV-1 Env of pseudovirus Ce2060_G9 (HIV-1)
[28] = biological target: HIV-1 Env of pseudovirus HIV-001428-2.42 (HIV-1)
[29] = biological target: HIV-1 Env of pseudovirus Du422.1 (HIV-1)
[30] = biological target: HIV-1 Env of pseudovirus Du156.12 (HIV-1)
[31] = biological target: HIV-1 Env of pseudovirus T278-50 (HIV-1)
[32] = biological target: HIV-1 Env of pseudovirus HIV-0013095-2.11 (HIV-1)
[33] = biological target: HIV-1 Env of pseudovirus 191955_A11 (HIV-1)
[34] = biological target: HIV-1 Env of pseudovirus CNE53 (HIV-1)
[35] = biological target: HIV-1 Env of pseudovirus 89-F1_2_25 (HIV-1)
[36] = biological target: HIV-1 Env of pseudovirus CNE17 (HIV-1)
[37] = biological target: HIV-1 Env of pseudovirus BJOX009000.02.4 (HIV-1)

N49P6 (antibody)
IC50 [1]: 0.209 µg/mL | IC80 [1]: 0.606 µg/mL | MPI [1]: 100 | IC50 [2]: 0.063 µg/mL | IC80 [2]: 0.17 µg/mL | MPI [2]: 100 | IC50 [3]: 1.24 µg/mL | IC80 [3]: 5.6 µg/mL | MPI [3]: 99 | IC50 [4]: 21.9 µg/mL | IC80 [4]: > 50 µg/mL | MPI [4]: 68 | IC50 [5]: 0.072 µg/mL | IC80 [5]: 0.318 µg/mL | MPI [5]: 100 | IC50 [6]: 0.417 µg/mL | IC80 [6]: 1.34 µg/mL | MPI [6]: 100 | IC50 [7]: 0.194 µg/mL | IC80 [7]: 1.25 µg/mL | MPI [7]: 100 | IC50 [8]: 0.062 µg/mL | IC80 [8]: 0.257 µg/mL | MPI [8]: 100 | IC50 [9]: 0.074 µg/mL | IC80 [9]: 0.224 µg/mL | MPI [9]: 100 | IC50 [10]: 0.567 µg/mL | IC80 [10]: 1.76 µg/mL | MPI [10]: 100 | IC50 [11]: 0.122 µg/mL | IC80 [11]: 0.549 µg/mL | MPI [11]: 100 | IC50 [12]: 0.255 µg/mL | IC80 [12]: 0.874 µg/mL | MPI [12]: 100 | IC50 [13]: 0.582 µg/mL | IC80 [13]: 1.57 µg/mL | MPI [13]: 100 | IC50 [14]: 0.147 µg/mL | IC80 [14]: 0.535 µg/mL | MPI [14]: 100 | IC50 [15]: 0.028 µg/mL | IC80 [15]: 0.077 µg/mL | MPI [15]: 100 | IC50 [16]: 17.5 µg/mL | IC80 [16]: > 50 µg/mL | MPI [16]: 80 | IC50 [17]: 0.128 µg/mL | IC80 [17]: 0.357 µg/mL | MPI [17]: 100 | IC50 [18]: 0.034 µg/mL | IC80 [18]: 0.091 µg/mL | MPI [18]: 100 | IC50 [19]: 21.7 µg/mL | IC80 [19]: > 50 µg/mL | MPI [19]: 75 | IC50 [20]: 0.116 µg/mL | IC80 [20]: 0.438 µg/mL | MPI [20]: 100 | IC50 [21]: 0.181 µg/mL | IC80 [21]: 0.817 µg/mL | MPI [21]: 100 | IC50 [22]: 0.07 µg/mL | IC80 [22]: 0.312 µg/mL | MPI [22]: 100 | IC50 [23]: 0.054 µg/mL | IC80 [23]: 0.149 µg/mL | MPI [23]: 100 | IC50 [24]: 0.052 µg/mL | IC80 [24]: 0.185 µg/mL | MPI [24]: 100 | IC50 [25]: 21.7 µg/mL | IC80 [25]: > 50 µg/mL | MPI [25]: 72 | IC50 [26]: 0.173 µg/mL | IC80 [26]: 0.622 µg/mL | MPI [26]: 100 | IC50 [27]: 0.888 µg/mL | IC80 [27]: 4.81 µg/mL | MPI [27]: 100 | IC50 [28]: 0.016 µg/mL | IC80 [28]: 0.05 µg/mL | MPI [28]: 100 | IC50 [29]: 44 µg/mL | IC80 [29]: > 50 µg/mL | MPI [29]: 57 | IC50 [30]: 0.082 µg/mL | IC80 [30]: 0.28 µg/mL | MPI [30]: 100 | IC50 [31]: 25.7 µg/mL | IC80 [31]: > 50 µg/mL | MPI [31]: 67 | IC50 [32]: 0.971 µg/mL | IC80 [32]: 8.04 µg/mL | MPI [32]: 96 | IC50 [33]: 0.124 µg/mL | IC80 [33]: 0.344 µg/mL | MPI [33]: 100 | IC50 [34]: 0.249 µg/mL | IC80 [34]: 0.871 µg/mL | MPI [34]: 99 | IC50 [35]: 33.6 µg/mL | IC80 [35]: > 50 µg/mL | MPI [35]: 61 | IC50 [36]: 0.34 µg/mL | IC80 [36]: 2.1 µg/mL | MPI [36]: 100 | IC50 [37]: 0.32 µg/mL | IC80 [37]: 1.46 µg/mL | MPI [37]: 100

PGT128 (antibody)
IC50 [1]: < 0.001 µg/mL | IC80 [1]: 0.008 µg/mL | IC50 [2]: 0.021 µg/mL | IC80 [2]: 0.081 µg/mL | IC50 [3]: > 50 µg/mL | IC80 [3]: > 50 µg/mL | IC50 [4]: < 0.001 µg/mL | IC80 [4]: 0.007 µg/mL | IC50 [5]: > 50 µg/mL | IC80 [5]: > 50 µg/mL | IC50 [6]: 0.004 µg/mL | IC80 [6]: 0.016 µg/mL | IC50, titer in TZM.bl cells [7]: 0.03 µg/mL | IC80, titer in TZM.bl cells [7]: 0.137 µg/mL | IC50 [8]: 0.022 µg/mL | IC80 [8]: 0.152 µg/mL | IC50, titer in TZM.bl cells [9]: > 50 µg/mL | IC80, titer in TZM.bl cells [9]: > 50 µg/mL | IC50 [10]: 0.019 µg/mL | IC80 [10]: 0.055 µg/mL | IC50 [11]: 7.87 µg/mL | IC80 [11]: > 50 µg/mL | IC50 [12]: 0.018 µg/mL | IC80 [12]: 0.041 µg/mL | IC50, titer in TZM.bl cells [13]: 0.014 µg/mL | IC80, titer in TZM.bl cells [13]: 0.033 µg/mL | IC50 [14]: > 50 µg/mL | IC80 [14]: > 50 µg/mL | IC50, titer in TZM.bl cells [15]: 20.1 µg/mL | IC80, titer in TZM.bl cells [15]: > 50 µg/mL | IC50 [16]: 0.011 µg/mL | IC80 [16]: 0.034 µg/mL | IC50 [17]: 0.011 µg/mL | IC80 [17]: 0.028 µg/mL | IC50 [18]: 0.008 µg/mL | IC80 [18]: 0.102 µg/mL | IC50 [19]: > 50 µg/mL | IC80 [19]: > 50 µg/mL | IC50 [20]: 0.342 µg/mL | IC80 [20]: 3.3 µg/mL | IC50 [21]: 0.002 µg/mL | IC80 [21]: 0.01 µg/mL | IC50, titer in TZM.bl cells [22]: 0.001 µg/mL | IC80, titer in TZM.bl cells [22]: 0.011 µg/mL | IC50, titer in TZM.bl cells [23]: 0.067 µg/mL | IC80, titer in TZM.bl cells [23]: 0.499 µg/mL | IC50 [24]: 0.009 µg/mL | IC80 [24]: 0.024 µg/mL | IC50, titer in TZM.bl cells [25]: > 50 µg/mL | IC80, titer in TZM.bl cells [25]: > 50 µg/mL | IC50 [26]: > 50 µg/mL | IC80 [26]: > 50 µg/mL | IC50 [27]: > 50 µg/mL | IC80 [27]: > 50 µg/mL | IC50 [28]: 0.026 µg/mL | IC80 [28]: 0.095 µg/mL | IC50 [29]: 0.039 µg/mL | IC80 [29]: 0.113 µg/mL | IC50 [30]: 0.017 µg/mL | IC80 [30]: 0.046 µg/mL | IC50, titer in TZM.bl cells [31]: 0.031 µg/mL | IC80, titer in TZM.bl cells [31]: 0.089 µg/mL | IC50 [32]: > 50 µg/mL | IC80 [32]: > 50 µg/mL | IC50 [33]: 14.2 µg/mL | IC80 [33]: > 50 µg/mL | IC50 [34]: 0.01 µg/mL | IC80 [34]: 0.049 µg/mL | IC50, titer in TZM.bl cells [35]: > 50 µg/mL | IC80, titer in TZM.bl cells [35]: > 50 µg/mL | IC50 [36]: 0.432 µg/mL | IC80 [36]: 1.99 µg/mL | IC50, titer in TZM.bl cells [37]: < 0.001 µg/mL | IC80, titer in TZM.bl cells [37]: 0.005 µg/mL
